Results as given in patent US7410949.

Key:
Test in all cases: cell-based or functional assay
[1] = biological target: T1, human NPY2 receptor (human) (UniProt P49146)
T1 sequence (looked up): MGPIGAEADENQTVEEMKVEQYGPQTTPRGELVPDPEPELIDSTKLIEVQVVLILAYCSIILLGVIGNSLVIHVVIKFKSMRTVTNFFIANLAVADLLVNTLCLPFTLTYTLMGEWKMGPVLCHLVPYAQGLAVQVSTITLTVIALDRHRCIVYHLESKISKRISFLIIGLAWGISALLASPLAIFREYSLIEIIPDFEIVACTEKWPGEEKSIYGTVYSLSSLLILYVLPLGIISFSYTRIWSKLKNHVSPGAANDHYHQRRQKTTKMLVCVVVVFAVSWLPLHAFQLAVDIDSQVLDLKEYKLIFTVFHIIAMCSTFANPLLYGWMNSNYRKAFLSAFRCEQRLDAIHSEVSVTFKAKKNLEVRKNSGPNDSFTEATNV

Y4R = biological target: Y4R
Y1R = biological target: Y1R
Chain of Y1R (P25929 whole entry): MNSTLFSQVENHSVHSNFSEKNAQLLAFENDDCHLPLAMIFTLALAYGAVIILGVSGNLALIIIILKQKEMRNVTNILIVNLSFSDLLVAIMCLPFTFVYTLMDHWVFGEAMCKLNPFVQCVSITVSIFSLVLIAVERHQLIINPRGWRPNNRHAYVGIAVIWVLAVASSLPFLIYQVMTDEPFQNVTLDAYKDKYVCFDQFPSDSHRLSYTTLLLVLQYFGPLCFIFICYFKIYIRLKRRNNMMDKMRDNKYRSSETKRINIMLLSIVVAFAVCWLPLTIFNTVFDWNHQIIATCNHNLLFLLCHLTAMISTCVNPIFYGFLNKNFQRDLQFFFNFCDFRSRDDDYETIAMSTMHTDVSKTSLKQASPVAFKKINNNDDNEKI

Substance	Y2R EC50(nM) FLIPR [1] [nM]	Y2R IC50(nM) cAMP [1] [nM]	Y4R EC50(nM) FLIPR (Y4R) [nM]	Y1R EC50(nM) FLIPR (Y1R) [nM]
Ac-1,1-Aic-Nle-Pqa-Arg-His-Tyr-Leu-Asn-Leu-Val-Thr-Arg-Gln-Arg-Tyr-NH2 (Pk B) (peptide)	6	1	> 5000	2650
Ac-Ach-Nle-Pqa-Arg-His-Tyr-Leu-Asn-Leu-Val-Thr-Arg-Gln-Arg-Tyr-NH2 (peptide)			> 5000	> 5000
Ac-Acp-Nle-Pqa-Arg-His-Tyr-Leu-Asn-Leu-Val-Thr-Arg-Gln-Arg-Tyr-NH2 (peptide)			> 5000	> 5000

Other lines, results leading:

Y2R EC50(nM) FLIPR [1] [nM]	Y2R IC50(nM) cAMP [1] [nM]	Y4R EC50(nM) FLIPR (Y4R) [nM]	Y1R EC50(nM) FLIPR (Y1R) [nM]	Substance
8.8	0.64	> 5000	1650	Ac-1,1-Aic-Nle-Pqa-Arg-His-Tyr-Leu-Asn-Leu-Val-Thr-Arg-Gln-Arg-Tyr-NH2 (Pk A) (peptide)
		> 5000	> 5000	Ac-2,2-Aic-Nle-Pqa-Arg-His-Tyr-Leu-Asn-Leu-Val-Thr-Arg-Gln-Arg-Tyr-NH2 (peptide)
		> 5000		Ac-Aib-Nle-Pqa-Arg-His-Tyr-Leu-Asn-Leu-Val-Thr-Arg-Gln-Arg-Tyr-NH2 (peptide)
